Results reported in the supplement of paper PMC10065799, “High-throughput profiling of sequence recognition by tyrosine kinases and SH2 domains using bacterial peptide display” (eLife, 2023).

Assays:
[1] = biological target: SHP2-C SH2; assay: SH2 binding enrichment of the phosphorylated peptide, bacterial display (enrichment ratio); higher = better substrate or ligand; peptides without Tyr show the background
[2] = biological target: c-Src SH2; assay: as above
[3] = biological target: Grb2 SH2 (UniProt P62993); assay: as above
Chain of Grb2 SH2 (P62993 whole entry, looked up): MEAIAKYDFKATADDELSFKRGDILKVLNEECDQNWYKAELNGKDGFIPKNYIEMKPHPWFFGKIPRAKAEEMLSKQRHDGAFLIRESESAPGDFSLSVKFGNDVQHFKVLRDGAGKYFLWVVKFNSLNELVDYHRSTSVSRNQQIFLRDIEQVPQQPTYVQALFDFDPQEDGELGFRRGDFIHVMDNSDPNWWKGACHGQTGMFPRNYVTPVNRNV

[4] = biological target: EPHB1 (UniProt P54762); assay: phosphorylation enrichment, bacterial display (enrichment ratio); higher = better substrate or ligand; peptides without Tyr show the background
[5] = test system: c-Src; assay: as above
[6] = biological target: Fes (UniProt P07332); assay: as above
[7] = biological target: Hck (UniProt P08631); assay: as above
Chain of Hck (P08631 whole entry, looked up): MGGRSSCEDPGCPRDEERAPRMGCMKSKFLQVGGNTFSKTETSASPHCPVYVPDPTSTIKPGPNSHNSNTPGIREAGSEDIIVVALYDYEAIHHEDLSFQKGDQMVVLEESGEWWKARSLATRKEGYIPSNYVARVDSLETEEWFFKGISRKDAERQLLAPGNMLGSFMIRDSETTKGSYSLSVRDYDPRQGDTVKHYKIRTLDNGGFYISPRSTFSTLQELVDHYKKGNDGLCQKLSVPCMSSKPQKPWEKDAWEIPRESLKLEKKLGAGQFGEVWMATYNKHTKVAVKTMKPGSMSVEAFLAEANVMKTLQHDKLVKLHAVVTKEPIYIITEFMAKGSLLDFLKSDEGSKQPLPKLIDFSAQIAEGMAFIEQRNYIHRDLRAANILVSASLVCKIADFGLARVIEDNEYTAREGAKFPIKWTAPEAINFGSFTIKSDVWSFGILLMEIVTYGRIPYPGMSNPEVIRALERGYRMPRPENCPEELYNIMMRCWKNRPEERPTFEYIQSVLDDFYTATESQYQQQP

[8] = biological target: FGFR1 (UniProt P11362); assay: as above
Chain of FGFR1 (P11362 whole entry, looked up): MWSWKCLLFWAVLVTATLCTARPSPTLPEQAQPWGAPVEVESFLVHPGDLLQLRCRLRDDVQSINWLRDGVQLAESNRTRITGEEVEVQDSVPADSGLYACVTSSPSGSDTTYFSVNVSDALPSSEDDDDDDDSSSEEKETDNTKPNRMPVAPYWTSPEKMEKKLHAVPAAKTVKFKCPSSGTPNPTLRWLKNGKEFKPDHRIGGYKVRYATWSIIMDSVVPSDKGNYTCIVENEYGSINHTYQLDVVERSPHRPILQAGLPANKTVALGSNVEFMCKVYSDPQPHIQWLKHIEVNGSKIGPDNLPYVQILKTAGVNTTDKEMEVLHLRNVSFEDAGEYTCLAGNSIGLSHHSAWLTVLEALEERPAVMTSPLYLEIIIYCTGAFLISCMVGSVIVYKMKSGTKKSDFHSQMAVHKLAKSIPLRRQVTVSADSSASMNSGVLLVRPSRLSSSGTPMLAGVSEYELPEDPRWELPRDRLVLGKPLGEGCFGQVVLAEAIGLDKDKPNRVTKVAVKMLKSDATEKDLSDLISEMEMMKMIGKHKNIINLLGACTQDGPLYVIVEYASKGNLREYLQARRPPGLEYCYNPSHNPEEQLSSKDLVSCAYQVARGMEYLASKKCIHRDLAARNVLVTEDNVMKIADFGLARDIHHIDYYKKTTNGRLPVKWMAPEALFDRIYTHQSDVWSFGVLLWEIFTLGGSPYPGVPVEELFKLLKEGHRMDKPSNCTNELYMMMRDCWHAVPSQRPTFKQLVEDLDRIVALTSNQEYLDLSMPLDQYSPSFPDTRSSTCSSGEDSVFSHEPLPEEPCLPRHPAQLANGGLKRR

[9] = test system: Fer (mouse); assay: as above
[10] = biological target: MERTK (UniProt Q12866); assay: as above
Chain of MERTK (Q12866 whole entry, looked up): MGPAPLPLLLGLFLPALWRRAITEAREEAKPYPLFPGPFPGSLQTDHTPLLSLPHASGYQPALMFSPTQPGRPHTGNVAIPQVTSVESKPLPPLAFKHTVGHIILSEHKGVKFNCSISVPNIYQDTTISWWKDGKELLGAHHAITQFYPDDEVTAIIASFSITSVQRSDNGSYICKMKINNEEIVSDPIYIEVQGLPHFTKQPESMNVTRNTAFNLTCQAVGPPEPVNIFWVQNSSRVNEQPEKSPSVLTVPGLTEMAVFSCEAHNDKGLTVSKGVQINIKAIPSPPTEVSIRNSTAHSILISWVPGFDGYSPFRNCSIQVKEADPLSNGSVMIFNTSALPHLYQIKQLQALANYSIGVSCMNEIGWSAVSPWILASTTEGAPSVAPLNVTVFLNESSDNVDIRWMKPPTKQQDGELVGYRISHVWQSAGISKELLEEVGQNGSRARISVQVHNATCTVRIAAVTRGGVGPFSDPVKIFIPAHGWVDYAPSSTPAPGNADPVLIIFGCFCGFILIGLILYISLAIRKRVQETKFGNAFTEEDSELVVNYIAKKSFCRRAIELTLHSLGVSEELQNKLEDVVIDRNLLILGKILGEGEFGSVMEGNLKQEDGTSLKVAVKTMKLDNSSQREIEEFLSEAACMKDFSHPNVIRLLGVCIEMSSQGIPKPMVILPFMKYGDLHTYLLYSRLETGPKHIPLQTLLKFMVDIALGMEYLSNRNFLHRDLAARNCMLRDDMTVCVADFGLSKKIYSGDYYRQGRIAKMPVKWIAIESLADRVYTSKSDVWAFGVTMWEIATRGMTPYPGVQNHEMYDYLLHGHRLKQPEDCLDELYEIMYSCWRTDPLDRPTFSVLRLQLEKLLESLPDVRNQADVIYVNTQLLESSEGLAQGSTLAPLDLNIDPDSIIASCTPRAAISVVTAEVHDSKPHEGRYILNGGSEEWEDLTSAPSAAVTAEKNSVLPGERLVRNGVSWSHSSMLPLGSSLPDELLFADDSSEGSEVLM

[11] = biological target: FGFR3 (UniProt P22607); assay: as above
Chain of FGFR3 (P22607 whole entry, looked up): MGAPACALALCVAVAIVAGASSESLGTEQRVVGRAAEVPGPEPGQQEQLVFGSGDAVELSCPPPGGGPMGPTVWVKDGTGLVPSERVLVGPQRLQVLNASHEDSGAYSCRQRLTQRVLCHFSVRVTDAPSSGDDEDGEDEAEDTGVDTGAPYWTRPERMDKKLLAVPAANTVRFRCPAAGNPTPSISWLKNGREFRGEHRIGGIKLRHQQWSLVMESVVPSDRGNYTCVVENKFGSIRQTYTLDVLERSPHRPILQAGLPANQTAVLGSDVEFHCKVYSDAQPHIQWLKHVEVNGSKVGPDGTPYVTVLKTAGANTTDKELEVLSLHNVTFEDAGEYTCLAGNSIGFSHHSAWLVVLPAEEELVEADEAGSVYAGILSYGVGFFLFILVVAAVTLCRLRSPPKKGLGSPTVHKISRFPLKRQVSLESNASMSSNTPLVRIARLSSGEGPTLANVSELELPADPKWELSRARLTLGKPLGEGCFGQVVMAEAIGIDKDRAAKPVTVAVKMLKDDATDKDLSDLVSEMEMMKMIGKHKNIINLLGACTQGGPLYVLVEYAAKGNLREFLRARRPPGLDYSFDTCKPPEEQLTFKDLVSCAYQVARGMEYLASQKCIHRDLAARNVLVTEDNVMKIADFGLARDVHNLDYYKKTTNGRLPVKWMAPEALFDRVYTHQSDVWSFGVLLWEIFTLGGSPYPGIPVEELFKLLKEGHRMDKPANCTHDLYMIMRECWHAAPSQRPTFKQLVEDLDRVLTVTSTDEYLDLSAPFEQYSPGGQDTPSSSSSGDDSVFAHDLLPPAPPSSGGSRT

[12] = test system: AncSZ; assay: as above
[13] = biological target: Fyn (UniProt P06241); assay: as above
Chain of Fyn (P06241 whole entry, looked up): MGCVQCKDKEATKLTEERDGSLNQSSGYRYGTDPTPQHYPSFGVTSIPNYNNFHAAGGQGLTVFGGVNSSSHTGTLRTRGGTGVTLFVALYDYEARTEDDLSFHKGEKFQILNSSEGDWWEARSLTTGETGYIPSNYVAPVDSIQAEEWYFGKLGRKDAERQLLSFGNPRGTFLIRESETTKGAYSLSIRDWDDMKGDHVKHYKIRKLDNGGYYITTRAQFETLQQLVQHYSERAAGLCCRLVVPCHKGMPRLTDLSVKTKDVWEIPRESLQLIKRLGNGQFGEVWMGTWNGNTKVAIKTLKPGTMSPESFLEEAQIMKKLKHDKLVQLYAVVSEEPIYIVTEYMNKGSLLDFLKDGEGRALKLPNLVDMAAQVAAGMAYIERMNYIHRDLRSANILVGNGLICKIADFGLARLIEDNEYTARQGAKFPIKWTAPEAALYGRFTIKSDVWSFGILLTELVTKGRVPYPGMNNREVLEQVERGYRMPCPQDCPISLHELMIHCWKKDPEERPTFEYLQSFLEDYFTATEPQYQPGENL

[14] = biological target: EPHB2 (UniProt P29323); assay: as above
[15] = test system: c-Abl (mouse); assay: as above
[16] = biological target: Jak2 (UniProt O60674); assay: as above
Chain of Jak2 (O60674 whole entry, looked up, the tested form may be a part): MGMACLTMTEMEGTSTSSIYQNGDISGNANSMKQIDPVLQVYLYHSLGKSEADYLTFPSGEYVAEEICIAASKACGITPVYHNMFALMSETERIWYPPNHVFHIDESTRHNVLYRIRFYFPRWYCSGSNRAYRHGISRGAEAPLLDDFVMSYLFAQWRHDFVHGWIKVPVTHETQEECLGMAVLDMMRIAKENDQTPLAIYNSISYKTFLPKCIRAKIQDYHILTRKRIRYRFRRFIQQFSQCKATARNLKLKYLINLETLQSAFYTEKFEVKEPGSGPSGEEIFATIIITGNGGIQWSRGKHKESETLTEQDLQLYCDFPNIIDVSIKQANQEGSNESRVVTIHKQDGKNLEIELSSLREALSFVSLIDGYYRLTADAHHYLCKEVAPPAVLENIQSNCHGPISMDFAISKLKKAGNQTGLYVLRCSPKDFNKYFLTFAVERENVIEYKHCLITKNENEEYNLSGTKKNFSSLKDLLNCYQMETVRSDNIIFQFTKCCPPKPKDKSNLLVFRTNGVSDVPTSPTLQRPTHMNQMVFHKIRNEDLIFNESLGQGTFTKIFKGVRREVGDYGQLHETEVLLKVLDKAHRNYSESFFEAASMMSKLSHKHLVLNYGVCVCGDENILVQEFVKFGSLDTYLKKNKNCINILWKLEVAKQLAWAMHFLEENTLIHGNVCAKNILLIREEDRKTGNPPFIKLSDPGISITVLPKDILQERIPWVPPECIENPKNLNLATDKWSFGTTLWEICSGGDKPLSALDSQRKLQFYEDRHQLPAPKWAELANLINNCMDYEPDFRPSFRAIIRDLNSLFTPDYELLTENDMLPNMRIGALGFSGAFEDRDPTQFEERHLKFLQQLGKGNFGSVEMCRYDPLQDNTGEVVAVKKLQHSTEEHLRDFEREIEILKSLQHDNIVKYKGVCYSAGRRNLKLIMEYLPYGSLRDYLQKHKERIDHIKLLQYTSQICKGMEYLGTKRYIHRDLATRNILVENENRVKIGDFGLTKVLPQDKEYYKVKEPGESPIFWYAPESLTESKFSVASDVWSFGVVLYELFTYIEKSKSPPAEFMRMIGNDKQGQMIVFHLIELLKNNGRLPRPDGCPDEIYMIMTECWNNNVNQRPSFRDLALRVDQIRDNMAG
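For SH2 binding enrichment of the phosphorylated peptide, bacterial display in this document: peptide library displayed on the E. coli surface as eCPX fusions, selected cells deep-sequenced, score is each peptide's frequency after selection divided by its frequency in the input.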
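For phosphorylation enrichment, bacterial display in this document: 11-residue human phosphosite peptides and single-mutation variants displayed on the E. coli surface, counted by deep sequencing, each peptide's frequency after selection divided by its frequency in the unselected input library; frequency after pTyr selection over input frequency; kinase dosed for 20-30% of maximal phosphorylation in three min.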

| Sequence | SH2 binding enrichment [1] | SH2 binding enrichment [2] | SH2 binding enrichment [3] | phosphorylation enrichment [4] | phosphorylation enrichment [5] | phosphorylation enrichment [6] | phosphorylation enrichment [7] | phosphorylation enrichment [8] | phosphorylation enrichment [9] | phosphorylation enrichment [10] | phosphorylation enrichment [11] | phosphorylation enrichment [12] | phosphorylation enrichment [13] | phosphorylation enrichment [14] | phosphorylation enrichment [15] | phosphorylation enrichment [16] |
| --- | --- | --- | --- | --- | --- | --- | --- | --- | --- | --- | --- | --- | --- | --- | --- | --- |
| ERPGVYTNVVE [F11_Y608] | 0.979 | 6.19 | 4.93 | 0.417 | 0.442 | 0.62 | 0.463 | 0.438 | 0.413 | 0.383 | 0.538 | 0.66 | 0.481 | 0.423 | 0.513 | 0.519 |
| ERQIRYLNHQL [CEP152_Y268] | 0.683 | 0.512 | 0.842 | 0.373 | 0.399 | 0.527 | 0.4 | 0.412 | 0.347 | 0.382 | 0.39 | 0.557 | 0.396 | 0.354 | 0.523 | 0.413 |
| ESDFTYSSSFE [SRPK2_Y427_YF] | 0.747 | 0.572 | 0.735 | 0.531 | 1.08 | 1.09 | 0.752 | 0.53 | 0.536 | 0.438 | 0.723 | 1.03 | 0.821 | 0.537 | 0.614 | 1.02 |
| ESMLRYDVFGG [STOX1_Y607_E608D_YF] | 0.627 | 1.56 | 1.1 | 0.445 | 1.1 | 0.846 | 0.619 | 0.508 | 0.536 | 2.37 | 0.685 | 0.933 | 0.636 | 0.631 | 0.582 | 0.91 |
| ETKKQYDSFTY [TMED3_Y85] | 0.714 | 1 | 0.772 | 0.397 | 0.604 | 0.828 | 0.54 | 0.5 | 0.542 | 0.524 | 0.581 | 0.735 | 0.531 | 0.493 | 0.639 | 0.656 |
| EVDGLYREAPI [MYL12B_Y143_E141G] | 1.07 | 0.528 | 0.753 | 0.503 | 0.482 | 0.976 | 0.536 | 0.629 | 0.504 | 0.443 | 0.718 | 0.879 | 0.488 | 0.527 | 0.662 | 0.83 |
| FAAAGYGSLEA [EPHA10_Y959] | 0.701 | 0.515 | 0.926 | 0.403 | 1.14 | 0.844 | 0.436 | 0.507 | 0.487 | 0.469 | 0.535 | 0.86 | 0.443 | 0.485 | 0.747 | 0.675 |
| FADIAYNYRHA [PAH_Y166_G171A] | 0.681 | 0.549 | 0.852 | 0.593 | 0.503 | 0.779 | 0.415 | 0.322 | 0.424 | 0.466 | 0.542 | 0.578 | 0.425 | 0.437 | 0.474 | 0.648 |
| FAKTQYPDVFA [CRX_Y63_YF] | 0.544 | 0.486 | 0.803 | 0.469 | 0.351 | 0.74 | 0.483 | 0.454 | 0.388 | 0.38 | 0.525 | 0.876 | 0.364 | 0.45 | 0.478 | 0.724 |
| FAKTQYPDVYA [CRX_Y63] | 1 | 0.418 | 0.963 | 0.474 | 0.486 | 0.692 | 0.653 | 0.533 | 0.4 | 0.346 | 0.478 | 0.628 | 0.469 | 0.526 | 0.652 | 0.52 |
| FDDIAHIRKTL [PIK3CA_Y1021_Y1021H] | 0.566 | 0.435 | 0.805 | 0.51 | 0.389 | 0.844 | 0.553 | 0.529 | 0.433 | 0.416 | 0.515 | 0.688 | 0.538 | 0.529 | 0.611 | 0.854 |
| FEAMEYLESKQ [BTK_Y511_C506Y_YF] | 0.635 | 0.484 | 0.641 | 0.534 | 0.427 | 1.36 | 0.567 | 0.527 | 0.543 | 0.474 | 0.993 | 1.24 | 0.499 | 0.682 | 0.966 | 1.17 |
| FETSHYPASPD [CTNND2_Y1217_YF] | 0.992 | 0.383 | 1.03 | 0.483 | 0.31 | 0.77 | 0.435 | 0.475 | 0.486 | 0.323 | 0.508 | 0.52 | 0.361 | 0.408 | 0.463 | 0.553 |
| FFRKFYNKSED [RYR1_Y4864] | 0.613 | 0.264 | 0.51 | 0.386 | 0.388 | 0.718 | 0.41 | 0.484 | 0.353 | 0.424 | 0.562 | 0.794 | 0.458 | 0.57 | 0.421 | 0.622 |
| FFRNVYHLASV [RBL1_Y796_K794N_YF] | 0.629 | 1.79 | 0.563 | 0.509 | 0.862 | 0.763 | 0.596 | 0.486 | 0.403 | 0.404 | 0.532 | 0.803 | 1.25 | 0.515 | 0.51 | 0.575 |
| FGLDRYQCDCT [PTGS1_Y54] | 0.849 | 0.942 | 1.01 | 0.625 | 0.422 | 1.23 | 0.499 | 0.587 | 0.492 | 0.454 | 0.861 | 1.1 | 0.524 | 0.613 | 0.796 | 0.874 |
| FGLQAYTKVKT [ALDH2_Y502_E504K_YF] | 1.65 | 1.38 | 0.744 | 0.763 | 0.442 | 1.23 | 0.513 | 0.472 | 0.476 | 0.447 | 0.877 | 1.12 | 0.546 | 0.644 | 0.799 | 1.33 |

| Sequence | SH2 binding enrichment [1] | SH2 binding enrichment [2] | SH2 binding enrichment [3] | phosphorylation enrichment [4] | phosphorylation enrichment [5] | phosphorylation enrichment [6] | phosphorylation enrichment [7] | phosphorylation enrichment [8] | phosphorylation enrichment [9] | phosphorylation enrichment [10] | phosphorylation enrichment [11] | phosphorylation enrichment [12] | phosphorylation enrichment [13] | phosphorylation enrichment [14] | phosphorylation enrichment [15] | phosphorylation enrichment [16] |
| --- | --- | --- | --- | --- | --- | --- | --- | --- | --- | --- | --- | --- | --- | --- | --- | --- |
| FHKALYTVRTY [PDE6C_Y266_S270T] | 0.725 | 0.481 | 0.768 | 0.774 | 0.596 | 1.26 | 0.725 | 0.655 | 0.542 | 0.519 | 0.774 | 0.964 | 0.599 | 0.645 | 0.964 | 1.16 |
| FIAVGYVDDTQ [HLA-A_Y51] | 0.967 | 0.625 | 1.05 | 0.453 | 0.49 | 0.949 | 0.509 | 0.505 | 0.429 | 0.415 | 0.553 | 0.822 | 0.406 | 0.499 | 0.668 | 0.782 |
| FITVGYVDDTQ [HLA-B_Y51_S48T] | 1.1 | 0.736 | 0.779 | 0.681 | 0.432 | 1.21 | 0.517 | 0.658 | 0.528 | 0.482 | 0.741 | 0.999 | 0.529 | 0.611 | 0.898 | 0.877 |
| FKDGQYWIRGR [ACSF3_Y466] | 0.359 | 0.46 | 0.825 | 0.317 | 0.501 | 0.862 | 0.614 | 0.361 | 0.387 | 0.379 | 0.482 | 0.78 | 0.448 | 0.369 | 0.491 | 0.671 |
| FKDGQYWIRGW [ACSF3_Y466_R471W] | 0.733 | 0.47 | 0.87 | 0.624 | 0.534 | 1.13 | 0.799 | 0.609 | 0.372 | 0.345 | 0.551 | 0.998 | 0.513 | 0.624 | 0.636 | 0.927 |
| FKIFRYTLNDN [FN1_Y1975_L1974R_YF] | 0.958 | 0.548 | 1.02 | 0.518 | 0.36 | 1.03 | 0.464 | 0.529 | 0.403 | 0.377 | 0.589 | 1.02 | 0.42 | 0.525 | 0.614 | 1.01 |
| FLAATYPTVGQ [NF1_Y2508_YF] | 0.888 | 0.57 | 0.835 | 0.444 | 0.426 | 0.634 | 0.518 | 0.357 | 0.593 | 0.396 | 0.523 | 0.548 | 0.435 | 0.494 | 0.401 | 0.404 |
| FLEEEYVKAVG [TF_Y674_G671E_YF] | 0.934 | 0.569 | 1.08 | 0.59 | 0.528 | 1.16 | 0.517 | 0.517 | 0.49 | 0.424 | 0.721 | 1.19 | 0.558 | 0.67 | 0.679 | 1.18 |
| FLKDVYVDSKD [NDUFAF4_Y69] | 0.749 | 0.413 | 0.848 | 0.459 | 0.471 | 0.983 | 0.707 | 0.488 | 0.557 | 0.471 | 0.731 | 1.11 | 0.48 | 0.512 | 0.66 | 0.855 |
| FLQTDDTSQVS [FRMPD1_Y846_Y846D] | 0.66 | 0.457 | 0.798 | 0.632 | 0.476 | 1.12 | 0.587 | 0.445 | 0.49 | 0.622 | 0.645 | 1.05 | 0.481 | 0.648 | 1.07 | 0.99 |
| FLRTGYSVPFG [TGM1_Y370_YF] | 1.62 | 5.53 | 0.885 | 0.523 | 0.53 | 0.955 | 0.461 | 0.504 | 0.466 | 0.561 | 0.632 | 0.875 | 0.729 | 0.515 | 0.945 | 0.929 |
| FLTQHYDAIPQ [ANG_Y38_K41I] | 0.927 | 13.9 | 0.809 | 0.715 | 0.678 | 0.855 | 2.88 | 0.639 | 9.86 | 2.46 | 0.866 | 0.885 | 0.586 | 0.51 | 0.611 | 0.608 |
| FMGVEYSSCDT [EPHA3_Y937_T933M] | 0.588 | 1.43 | 0.598 | 0.683 | 0.521 | 1.31 | 0.61 | 0.601 | 0.64 | 0.479 | 0.838 | 1.32 | 0.441 | 0.756 | 0.827 | 1.2 |
| FNNPAYYVLEG [INPPL1_Y986] | 1.12 | 3.95 | 0.992 | 0.851 | 2.06 | 0.958 | 1.11 | 12.1 | 0.485 | 7.95 | 9.49 | 1.2 | 1.75 | 0.704 | 0.767 | 4.76 |
| FPHVISARLWR [SMAD4_Y95_Y95S] | 1.08 | 0.468 | 1.11 | 0.419 | 0.498 | 0.962 | 0.429 | 0.477 | 0.524 | 0.458 | 0.557 | 1 | 0.581 | 0.547 | 0.701 | 0.805 |
| FRIGPYQPNVP [MATR3_Y784_YF] | 0.754 | 0.634 | 0.844 | 0.477 | 0.506 | 0.966 | 0.484 | 0.538 | 0.446 | 0.532 | 0.736 | 0.773 | 0.45 | 0.514 | 0.631 | 0.78 |
